Data published in PMC8169757.
Each block holds one substance with its values, some of them ahead of it.

What was measured:
[1] = molecular target: mouse NPM1 reintroduced into NPM1-/- HUH7 cells (mouse) (UniProt Q61937); experiment: native gel or EMSA; native PAGE of lysates of NPM1-/- HUH7 cells with reintroduced human or mouse NPM1; control and LETN knockdown
[2] = molecular target: purified mouse NPM1 mutant mNPM1-214S/217S (mouse) (UniProt Q61937); experiment: native gel or EMSA; in vitro NPM1 oligomerization assay: purified NPM1 sonicated in binding buffer (50 mM Tris pH 7.4, 150 mM NaCl, 0.5% NP-40), incubated at RT with the in vitro transcribed first ~2000 nt of LETN, 10% native PAGE, anti-NPM1 blot
[3] = molecular target: purified mouse NPM1 protein (mouse) (UniProt Q61937); experiment: native gel or EMSA; in vitro NPM1 oligomerization assay as a5 but without functional LETN (no RNA, scrambled RNA of similar length, or LETN lacking the three NPM1-binding fragments)

stoichiometry N [1]: 5
Substance: mouse NPM1 reintroduced into NPM1-/- HUH7 cells (from UniProt Q61937 1-292) (natural protein)

stoichiometry N [2]: 5
Substance: purified mouse NPM1 mutant mNPM1-214S/217S (from UniProt Q61937 1-292) (natural protein)

stoichiometry N [3]: 5
Substance: purified mouse NPM1 protein (from UniProt Q61937 1-292) (natural protein)
